From the supplement of paper PMC10724198 come the findings set out here.

± gives the standard deviation of the averaged measurements.
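Also: PSI is a weighted mean of sequencing reads over stability bins, variants kept only with over 10 reads, mCherry proximal and sfGFP distal, peptide attached via GGGS linker.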

The test system of this series is Saccharomyces cerevisiae. The series is described as follows: protein stability index of tFT-peptide fusion (C-terminal peptide) (PSI (0-1 scale)); higher = more stable (slower turnover). To be noted: genetic background: wild type; temperature: 30 C. How it is done:
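Multiplexed protein stability (MPS) profiling in S. cerevisiae. Random 12-aa peptides (tFT-X12 library) are fused to the C-terminus of a sfGFP-mCherry tandem fluorescent timer, after mCherry and a GGGS linker. Cells are FACS-sorted into 8 mCherry/sfGFP bins and deep-sequenced. The protein stability index (PSI) is the read-weighted bin average, scaled from 0 (unstable) to 1 (stable). Only peptides with >10 reads are reported; cells were grown at 30 °C in SC-His with glucose.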
EFTGVYLWERGW had a protein stability index of 0.7 ± 0.041.
On to EGDGQGGGGQGG, for which the protein stability index is 0.695 ± 0.011.
EGEERGEGQVRA returned a protein stability index of 0.675 ± 0.0068.
EGGCCRMVGVVK came in with a protein stability index of 0.633 ± 0.0024.
On to EGGGASELGAPN, for which the protein stability index was 0.567 ± 0.095.
EGGGGKGRKRRA returned a protein stability index of 0.712 ± 0.022.
To EGGIYLQMCVGS belongs 0.616 ± 0.035.
To EGGTGNHSVSNQ belongs 0.654 ± 0.022; to EGGVGGRAPRVR, 0.747 ± 0.098; to EGITFGNDECWC, 0.782 ± 0.095.
The sequence EGLNASGGGSGG returned a protein stability index of 0.644 ± 0.07.
To EGLPGGLRGCLR belongs 0.687 ± 0.021; to EGLVRVCSRHYR, 0.67 ± 0.0083; to EGNPPTRPRSLG, 0.682 ± 0.052.
Regarding EGRDDIVEKKRR, the protein stability index was found to be 0.66 ± 0.063.
Take EGREGQRHRRVI: the protein stability index was 0.669 ± 0.01.
For EGREGVFGEGRA the value was 0.703 ± 0.031.
For EGRKTLWEGNRG the value was 0.609 ± 0.059; for EGRRGVGGAWEG, 0.6573 ± 0.0037; for EGSSGVLESRAG, 0.671 ± 0.026.
Turning to EGSSVITFAGGG, the protein stability index was 0.664 ± 0.046.
Sequence EGTSYWDPSVPG returned a protein stability index of 0.741 ± 0.045.
To EHERQQYKNYNK belongs 0.671 ± 0.057.
Take EIERTKNEGEEG: the protein stability index was 0.67 ± 0.058.
Sequence EIRKGGVRSTSN displayed a protein stability index of 0.668 ± 0.13.
With EIVTQQKIMDKK, the protein stability index was determined as 0.711 ± 0.012.
Turning to EKCIGKRGLTKY, the protein stability index is 0.703 ± 0.022.
For EKERKIKEREVT the value was 0.631 ± 0.018; for EKGSKTGNKPQT, 0.688 ± 0.048.
With EKIKKQITRTRR, the protein stability index was 0.6652 ± 0.0053.
To EKIVHEGAHGWR belongs 0.681 ± 0.02; to EKKKKRNKVNQN, 0.709 ± 0.064; to EKKYKKKYKKKE, 0.641 ± 0.031.
As for EKMILEIKRGRI, the protein stability index came out at 0.688 ± 0.036.
In turn, EKNDKEYKRSIS registered a protein stability index of 0.665 ± 0.06.
For EKNKRMEVKAKR the value was 0.67 ± 0.0096; for EKNTNVDHNRNF, 0.7384 ± 0.0061; for EKPKEGKNETKK, 0.734 ± 0.042.
For EKQKNLPQEAKQ the value was 0.7 ± 0.02.
In the case of EKRINLKKRGKT, the protein stability index stood at 0.669 ± 0.064.
For ELCAFLFYPFVV, the protein stability index was found to be 0.599 ± 0.039.
As to ELEGKIMNITVW, the protein stability index is 0.661 ± 0.024.
Regarding ELGNREGVGYEV, the protein stability index came to 0.781 ± 0.17.
Sequence ELKRVCVHRTER returned a protein stability index of 0.7 ± 0.025.
Turning to ELLHMAAGLGGR, the protein stability index came out at 0.643 ± 0.015.
For ELNSGLLRSKET, the protein stability index came out at 0.661 ± 0.0095.
To ELQVSGNTIIVV belongs 0.529 ± 0.032.
To ELRSAIRAVPFL belongs 0.737 ± 0.028.
With ELRSVLDRDVRV, the protein stability index was 0.725 ± 0.049.
To ELWCLGVLGGDV belongs 0.708 ± 0.0089; to ENCPPETLNRGE, 0.686 ± 0.081.
For ENLFLRRVWFCR the value was 0.686 ± 0.022.
For ENLRKLGIALWG the value was 0.682 ± 0.14; for ENQGEKQKKKKR, 0.685 ± 0.013; for ENRGIEITGKRS, 0.727 ± 0.022.
Consider ENVAKKEKITKK, for which the protein stability index turned out to be 0.694 ± 0.02.
The sequence EPAAHCGERRHL yielded a protein stability index of 0.608 ± 0.064.
For EPAFMRRFMSNK the value was 0.657 ± 0.016; for EPKLPPCPTPPS, 0.721 ± 0.012; for EPRWPCNVAGIV, 0.706 ± 0.13.
In the case of EQKYHTCEDAQK, the protein stability index worked out at 0.685 ± 0.1.
EQQTPIKKNKQR yielded a protein stability index of 0.826 ± 0.036.
For the sequence EQSERGIQQGTN, the protein stability index was found to be 0.633 ± 0.02.
EQWSAHSMLSGR registered a protein stability index of 0.705 ± 0.026.
